# According to patent publication US20190270817A1 (Amgen, published 2019):
# Biological target: T1, cynomolgus monkey IL-21R, recombinant soluble (FLAG-His or Fc, not stated which) (cynomolgus monkey, UniProt G7Q0S8 41-253)
# T1 construct: also called IL-21R Cy
# Test: ForteBio Octet
row,Kd,Binder
1,> 300 nM,"A-1-003 (20A2.003) x IL-21 (R5A, R76E) homodimer fusion (other, not shown: a dimerising Fc or GST) heavy: not shown light: SYELTQPPSVSVSPGQTASITCSGDKLGDKYASWYQQKPGQSPVLVIYQDRKRPSGIPERFSGSNSGNTATLTISGTQAMDEADYYCQAFESSTEVFGGGTKLTVLGQPKAAPSVTLFPPSSEELQANKATLVCLISDFYPGAVTVAWKADSSPVKAGVETTTPSKQSNNKYAASSYLSLTPEQWKSHRSYSCQVTHEGSTVEKTVAPTECS"
2,> 300 nM,"A-1-003 (20A2.003) x IL-21 (R5E, R76A) homodimer fusion (other, not shown: a dimerising Fc or GST) heavy: not shown light: SYELTQPPSVSVSPGQTASITCSGDKLGDKYASWYQQKPGQSPVLVIYQDRKRPSGIPERFSGSNSGNTATLTISGTQAMDEADYYCQAFESSTEVFGGGTKLTVLGQPKAAPSVTLFPPSSEELQANKATLVCLISDFYPGAVTVAWKADSSPVKAGVETTTPSKQSNNKYAASSYLSLTPEQWKSHRSYSCQVTHEGSTVEKTVAPTECS"
3,> 300 nM,"A-1-003 (20A2.003) x IL-21 (R5Q, R76E) homodimer fusion (other, not shown: a dimerising Fc or GST) heavy: not shown light: SYELTQPPSVSVSPGQTASITCSGDKLGDKYASWYQQKPGQSPVLVIYQDRKRPSGIPERFSGSNSGNTATLTISGTQAMDEADYYCQAFESSTEVFGGGTKLTVLGQPKAAPSVTLFPPSSEELQANKATLVCLISDFYPGAVTVAWKADSSPVKAGVETTTPSKQSNNKYAASSYLSLTPEQWKSHRSYSCQVTHEGSTVEKTVAPTECS"
4,> 300 nM,"A-1-003 (20A2.003) x IL-21 (R9E, R76A) homodimer fusion (other, not shown: a dimerising Fc or GST) heavy: not shown light: SYELTQPPSVSVSPGQTASITCSGDKLGDKYASWYQQKPGQSPVLVIYQDRKRPSGIPERFSGSNSGNTATLTISGTQAMDEADYYCQAFESSTEVFGGGTKLTVLGQPKAAPSVTLFPPSSEELQANKATLVCLISDFYPGAVTVAWKADSSPVKAGVETTTPSKQSNNKYAASSYLSLTPEQWKSHRSYSCQVTHEGSTVEKTVAPTECS"
5,> 300 nM,"A-2-006 (22D4.006) x IL-21 (R5A, R76E) homodimer fusion (other, not shown: a dimerising Fc or GST) heavy: EVQLVESGGSVVRPGGSLRLSCAASGFTVDDYSMSWVRQVPGKGLEWVSGINWNGGRTRYADAVKGRFTISRDSAKNSLYLQMNSLRAEDTALYYCAREFNNFESNWFDPWGQGTLVTVSSQGQDAHMIRMRQLIDIVDQLKNYVNDLVPEFLPAPEDVETNCEWSAFSCFQKAQLKSANTGNNERIINVSIKKLKEKPPSTNAGRRQKHRLTCPSCDSYEKKPPKEFLERFKSLLQKMIHQHLSSRTHGSEDS light: SYELTQPPSVSVSPGQTARITCSGDALPKKYAYWYQQKPGQAPVLVISEDAKRPSGIPERFSGSSSGTMATLTISGAQVEDEADYYCYSTDASGNHRVFGGGTKLTVLGQPKAAPSVTLFPPSSEELQANKATLVCLISDFYPGAVTVAWKADSSPVKAGVETTTPSKQSNNKYAASSYLSLTPEQWKSHRSYSCQVTHEGSTVEKTVAPTECS"
6,> 300 nM,"A-2-006 (22D4.006) x IL-21 (R5E, R76A) homodimer fusion (other, not shown: a dimerising Fc or GST) heavy: EVQLVESGGSVVRPGGSLRLSCAASGFTVDDYSMSWVRQVPGKGLEWVSGINWNGGRTRYADAVKGRFTISRDSAKNSLYLQMNSLRAEDTALYYCAREFNNFESNWFDPWGQGTLVTVSSQGQDEHMIRMRQLIDIVDQLKNYVNDLVPEFLPAPEDVETNCEWSAFSCFQKAQLKSANTGNNERIINVSIKKLKAKPPSTNAGRRQKHRLTCPSCDSYEKKPPKEFLERFKSLLQKMIHQHLSSRTHGSEDS light: SYELTQPPSVSVSPGQTARITCSGDALPKKYAYWYQQKPGQAPVLVISEDAKRPSGIPERFSGSSSGTMATLTISGAQVEDEADYYCYSTDASGNHRVFGGGTKLTVLGQPKAAPSVTLFPPSSEELQANKATLVCLISDFYPGAVTVAWKADSSPVKAGVETTTPSKQSNNKYAASSYLSLTPEQWKSHRSYSCQVTHEGSTVEKTVAPTECS"
7,> 300 nM,"A-2-006 (22D4.006) x IL-21 (R5Q, R76E) homodimer fusion (other, not shown: a dimerising Fc or GST) heavy: EVQLVESGGSVVRPGGSLRLSCAASGFTVDDYSMSWVRQVPGKGLEWVSGINWNGGRTRYADAVKGRFTISRDSAKNSLYLQMNSLRAEDTALYYCAREFNNFESNWFDPWGQGTLVTVSSQGQDQHMIRMRQLIDIVDQLKNYVNDLVPEFLPAPEDVETNCEWSAFSCFQKAQLKSANTGNNERIINVSIKKLKEKPPSTNAGRRQKHRLTCPSCDSYEKKPPKEFLERFKSLLQKMIHQHLSSRTHGSEDS light: SYELTQPPSVSVSPGQTARITCSGDALPKKYAYWYQQKPGQAPVLVISEDAKRPSGIPERFSGSSSGTMATLTISGAQVEDEADYYCYSTDASGNHRVFGGGTKLTVLGQPKAAPSVTLFPPSSEELQANKATLVCLISDFYPGAVTVAWKADSSPVKAGVETTTPSKQSNNKYAASSYLSLTPEQWKSHRSYSCQVTHEGSTVEKTVAPTECS"
8,> 300 nM,"A-2-006 (22D4.006) x IL-21 (R9E, R76A) homodimer fusion (other, not shown: a dimerising Fc or GST) heavy: EVQLVESGGSVVRPGGSLRLSCAASGFTVDDYSMSWVRQVPGKGLEWVSGINWNGGRTRYADAVKGRFTISRDSAKNSLYLQMNSLRAEDTALYYCAREFNNFESNWFDPWGQGTLVTVSSQGQDRHMIEMRQLIDIVDQLKNYVNDLVPEFLPAPEDVETNCEWSAFSCFQKAQLKSANTGNNERIINVSIKKLKAKPPSTNAGRRQKHRLTCPSCDSYEKKPPKEFLERFKSLLQKMIHQHLSSRTHGSEDS light: SYELTQPPSVSVSPGQTARITCSGDALPKKYAYWYQQKPGQAPVLVISEDAKRPSGIPERFSGSSSGTMATLTISGAQVEDEADYYCYSTDASGNHRVFGGGTKLTVLGQPKAAPSVTLFPPSSEELQANKATLVCLISDFYPGAVTVAWKADSSPVKAGVETTTPSKQSNNKYAASSYLSLTPEQWKSHRSYSCQVTHEGSTVEKTVAPTECS"
9,> 300 nM,"A-3-009 (20C1.009) x IL-21 (R5Q, R76E) homodimer fusion (other, not shown: a dimerising Fc or GST) heavy: EVQLLESGGGLVQPGGSLRLSCAASGFTFSSYDMSWVRQAPGKGLEWVSLISGGGSQTYYAESVKGRFTISRDNSKNTLYLQMNSLRAEDTAVYFCASPSGHYFYAMDVWGQGTTVTVSSQGQDQHMIRMRQLIDIVDQLKNYVNDLVPEFLPAPEDVETNCEWSAFSCFQKAQLKSANTGNNERIINVSIKKLKEKPPSTNAGRRQKHRLTCPSCDSYEKKPPKEFLERFKSLLQKMIHQHLSSRTHGSEDS light: DIQMTQSPSSVSASVGDRVTITCRASQGISNWLAWYQQKPGKAPKLLIFAASSLQSGVPSRFSGSGSGTDFTLTISSLQPEDFATYYCQQAESFPHTFGGGTKVEIKRTVAAPSVFIFPPSDEQLKSGTASVVCLLNNFYPREAKVQWKVDNALQSGNSQESVTEQDSKDSTYSLSSTLTLSKADYEKHKVYACEVTHQGLSSPVTKSFNRGEC"
10,> 300 nM,"A-4-006 (20C1.006) x IL-21 (R5A, R76E) homodimer fusion (other, not shown: a dimerising Fc or GST) heavy: EVQLLESGGGLVQPGGSLRLSCAASGFTFSSYDMSWVRQAPGKGLEWVSLISGGGSNTYYAESVKGRFTISRDNSKNTLYLQMNSLRAEDTAVYFCASPSGHYFYAMDVWGQGTTVTVSSQGQDAHMIRMRQLIDIVDQLKNYVNDLVPEFLPAPEDVETNCEWSAFSCFQKAQLKSANTGNNERIINVSIKKLKEKPPSTNAGRRQKHRLTCPSCDSYEKKPPKEFLERFKSLLQKMIHQHLSSRTHGSEDS light: DIQMTQSPSSVSASVGDRVTITCRASQGISNWLAWYQQKPGKAPKLLIFAASSLQSGVPSRFSGSGSGTDFTLTISSLQPEDFATYYCQQAESFPHTFGGGTKVEIKRTVAAPSVFIFPPSDEQLKSGTASVVCLLNNFYPREAKVQWKVDNALQSGNSQESVTEQDSKDSTYSLSSTLTLSKADYEKHKVYACEVTHQGLSSPVTKSFNRGEC"
11,> 300 nM,"A-3-009 (20C1.009) x IL-21 (R9E, R76A) homodimer fusion (other, not shown: a dimerising Fc or GST) heavy: EVQLLESGGGLVQPGGSLRLSCAASGFTFSSYDMSWVRQAPGKGLEWVSLISGGGSQTYYAESVKGRFTISRDNSKNTLYLQMNSLRAEDTAVYFCASPSGHYFYAMDVWGQGTTVTVSSQGQDRHMIEMRQLIDIVDQLKNYVNDLVPEFLPAPEDVETNCEWSAFSCFQKAQLKSANTGNNERIINVSIKKLKAKPPSTNAGRRQKHRLTCPSCDSYEKKPPKEFLERFKSLLQKMIHQHLSSRTHGSEDS light: DIQMTQSPSSVSASVGDRVTITCRASQGISNWLAWYQQKPGKAPKLLIFAASSLQSGVPSRFSGSGSGTDFTLTISSLQPEDFATYYCQQAESFPHTFGGGTKVEIKRTVAAPSVFIFPPSDEQLKSGTASVVCLLNNFYPREAKVQWKVDNALQSGNSQESVTEQDSKDSTYSLSSTLTLSKADYEKHKVYACEVTHQGLSSPVTKSFNRGEC"
12,> 300 nM,"A-3-009 (20C1.009) x IL-21 (R5E, R76A) homodimer fusion (other, not shown: a dimerising Fc or GST) heavy: EVQLLESGGGLVQPGGSLRLSCAASGFTFSSYDMSWVRQAPGKGLEWVSLISGGGSQTYYAESVKGRFTISRDNSKNTLYLQMNSLRAEDTAVYFCASPSGHYFYAMDVWGQGTTVTVSSQGQDEHMIRMRQLIDIVDQLKNYVNDLVPEFLPAPEDVETNCEWSAFSCFQKAQLKSANTGNNERIINVSIKKLKAKPPSTNAGRRQKHRLTCPSCDSYEKKPPKEFLERFKSLLQKMIHQHLSSRTHGSEDS light: DIQMTQSPSSVSASVGDRVTITCRASQGISNWLAWYQQKPGKAPKLLIFAASSLQSGVPSRFSGSGSGTDFTLTISSLQPEDFATYYCQQAESFPHTFGGGTKVEIKRTVAAPSVFIFPPSDEQLKSGTASVVCLLNNFYPREAKVQWKVDNALQSGNSQESVTEQDSKDSTYSLSSTLTLSKADYEKHKVYACEVTHQGLSSPVTKSFNRGEC"
